This passage reports FXa kcat/KM results from patent US20160024487.

Data set [1] addresses T1, Lys(Dnp)-ATNATWQPRIVGG-Lys(Abz).
T1 chain: KATNATWQPRIVGGK

The target of data set [2] is T2, Lys(Dnp)-ATNATFKPRIVGG-Lys(Abz).
T2 chain: KATNATFKPRIVGGK

For data set [3], the target named is T3, Lys(Dnp)-ATNATMKPRIVGG-Lys(Abz).
T3 chain: KATNATMKPRIVGGK

In data set [4] the target is T4, Lys(Dnp)-ATNATIHPRIVGG-Lys(Abz).
T4 chain: KATNATIHPRIVGGK

In data set [5] the target is T5, Lys(Dnp)-ATNATLTPRIVGG-Lys(Abz).
T5 chain: KATNATLTPRIVGGK

The target in data set [6] is T6, Lys(Dnp)-ATNATLYPRIVGG-Lys(Abz).
T6 chain: KATNATLYPRIVGGK

For data set [7], the target named is T7, Lys(Dnp)-ATNATYKPRIVGG-Lys(Abz).
T7 chain: KATNATYKPRIVGGK

The target of data set [8] is T8, Lys(Dnp)-ATNATLRPRIVGG-Lys(Abz).
T8 chain: KATNATLRPRIVGGK

For data set [9], the target named is T9, Lys(Dnp)-ATNATVHPRIVGG-Lys(Abz).
T9 chain: KATNATVHPRIVGGK

In data set [10] the target is T10, Lys(Dnp)-ATNATVTPRIVGG-Lys(Abz).
T10 chain: KATNATVTPRIVGGK

Data set [11] concerns the target T11, Lys(Dnp)-ATNATYTPRIVGG-Lys(Abz).
T11 chain: KATNATYTPRIVGGK

In data set [12] the target is T12, Lys(Dnp)-ATNATLSPRIVGG-Lys(Abz).
T12 chain: KATNATLSPRIVGGK

Data set [13] has as its target T13, Lys(Dnp)-ATNATYWPRIVGG-Lys(Abz).
T13 chain: KATNATYWPRIVGGK

Data set [14] concerns the target T14, Lys(Dnp)-ATNATGWPRIVGG-Lys(Abz).
T14 chain: KATNATGWPRIVGGK

Data set [15] concerns the target T15, Lys(Dnp)-ATNATADPRIVGG-Lys(Abz).
T15 chain: KATNATADPRIVGGK

For data set [16], the target named is T16, Lys(Dnp)-ATNATRAPRIVGG-Lys(Abz).
T16 chain: KATNATRAPRIVGGK

Data set [17] concerns the target T17, Lys(Dnp)-ATNATHNPRIVGG-Lys(Abz).
T17 chain: KATNATHNPRIVGGK

In data set [18] the target is T18, Lys(Dnp)-ATNATMAPRIVGG-Lys(Abz).
T18 chain: KATNATMAPRIVGGK

The target in data set [19] is T19, Lys(Dnp)-ATNATNIPRIVGG-Lys(Abz).
T19 chain: KATNATNIPRIVGGK

The target of data set [20] is T20, Lys(Dnp)-ATNATKGPRIVGG-Lys(Abz).
T20 chain: KATNATKGPRIVGGK

The target of data set [21] is T21, Lys(Dnp)-ATNATIGPRIVGG-Lys(Abz).
T21 chain: KATNATIGPRIVGGK

Data set [22] addresses T22, Lys(Dnp)-ATNATDLPRIVGG-Lys(Abz).
T22 chain: KATNATDLPRIVGGK

In data set [23] the target is T23, Lys(Dnp)-ATNATKEPRIVGG-Lys(Abz).
T23 chain: KATNATKEPRIVGGK

Data set [24] has as its target T24, Lys(Dnp)-ATNATISPRIVGG-Lys(Abz).
T24 chain: KATNATISPRIVGGK

For data set [25], the target named is T25, Lys(Dnp)-ATNATGDPRIVGG-Lys(Abz).
T25 chain: KATNATGDPRIVGGK

Data set [26] has as its target T26, Lys(Dnp)-ATNATHPPRIVGG-Lys(Abz).
T26 chain: KATNATHPPRIVGGK

Data set [27] addresses T27, Lys(Dnp)-ATNATNLPRIVGG-Lys(Abz).
T27 chain: KATNATNLPRIVGGK

The target of data set [28] is T28, Lys(Dnp)-ATNATEYPRIVGG-Lys(Abz).
T28 chain: KATNATEYPRIVGGK

The target in data set [29] is T29, Lys(Dnp)-ATNATKRPRIVGG-Lys(Abz).
T29 chain: KATNATKRPRIVGGK

Data set [30] concerns the target T30, Lys(Dnp)-ATNATPLPRIVGG-Lys(Abz).
T30 chain: KATNATPLPRIVGGK

In data set [31] the target is T31, Lys(Dnp)-ATNATPMPRIVGG-Lys(Abz).
T31 chain: KATNATPMPRIVGGK

For data set [32], the target named is T32, Lys(Dnp)-ATNATRSPRIVGG-Lys(Abz).
T32 chain: KATNATRSPRIVGGK

For data set [33], the target named is T33, Lys(Dnp)-ATNATLDPRIVGG-Lys(Abz).
T33 chain: KATNATLDPRIVGGK

The target of data set [34] is T34, Lys(Dnp)-ATNATPSPRIVGG-Lys(Abz).
T34 chain: KATNATPSPRIVGGK

The target in data set [35] is T35, Lys(Dnp)-ATNATQIPRIVGG-Lys(Abz).
T35 chain: KATNATQIPRIVGGK

The target in data set [36] is T36, Lys(Dnp)-ATNATFNPRIVGG-Lys(Abz).
T36 chain: KATNATFNPRIVGGK

Data set [37] has as its target T37, Lys(Dnp)-ATNATYLPRIVGG-Lys(Abz).
T37 chain: KATNATYLPRIVGGK

Data set [38] concerns the target T38, Lys(Dnp)-ATNATTWPRIVGG-Lys(Abz).
T38 chain: KATNATTWPRIVGGK

The target in data set [39] is T39, Lys(Dnp)-ATNATEMPRIVGG-Lys(Abz).
T39 chain: KATNATEMPRIVGGK

In data set [40] the target is T40, Lys(Dnp)-ATNATSEPRIVGG-Lys(Abz).
T40 chain: KATNATSEPRIVGGK

The target in data set [41] is T41, Lys(Dnp)-ATNATVRPRIVGG-Lys(Abz).
T41 chain: KATNATVRPRIVGGK

B1: Human plasma purified Factor Xa (protein)
chain 1: ANSFLEEMKKGHLERECMEETCSYEEAREVFEDSDKTNEFWNKYKDGDQCETSPCQNQGKCKDGLGEYTCTCLEGFEGKNCELFTRKLCSLDNGDCDQFCHEEQNSVVCSCARGYTLADNGKACIPTGPYPCGKQTLER
chain 2: IVGGQECKDGECPWQALLINEENEGFCGGTILSEFYILTAAHCLYQAKRFKVRVGDRNTEQEEGGEAVHEVEVVIKHNRFTKETYDFDIAVLRLKTPITFRMNVAPACLPERDWAESTLMTQKTGIVSGFGRTHEKGRQSTRLKMLEVPYVDRNSCKLSSSFIITQNMFCAGYDTKQEDACQGDSGGPHVTRFKDTYFVTGIVSWGEGCARKGKYGIYTKVTAFLKWIDRSMKTRGLPKAKSHAPEVITSSPLK
Regarding B1, the FXa kcat/KM in data set [1] stood at 37 M⁻¹ s⁻¹; in data set [2], 55 M⁻¹ s⁻¹; in data set [3], 72 M⁻¹ s⁻¹; in data set [4] it was 810 M⁻¹ s⁻¹; in data set [5] it was 540 M⁻¹ s⁻¹; in data set [6] it was 160 M⁻¹ s⁻¹. Further, the FXa kcat/KM in data set [7] is 25 M⁻¹ s⁻¹; in data set [8], 610 M⁻¹ s⁻¹; in data set [9] it was 67 M⁻¹ s⁻¹; in [10], 68 M⁻¹ s⁻¹; in data set [11], 29 M⁻¹ s⁻¹; in data set [12] it was 690 M⁻¹ s⁻¹. Besides, in data set [13], the FXa kcat/KM came to 54 M⁻¹ s⁻¹.

B2: Human plasma purified Factor Xa (Molecular Innovations, Inc) (protein)
chain 1: B1 chain 1
chain 2: B1 chain 2
Regarding B2, the FXa kcat/KM was 82 M⁻¹ s⁻¹ in [14]; 56 M⁻¹ s⁻¹ in [15]; 2000 M⁻¹ s⁻¹ in data set [16]; 71 M⁻¹ s⁻¹ in data set [17]; 360 M⁻¹ s⁻¹ in data set [18]; 38 M⁻¹ s⁻¹ in [19]. Moreover, the FXa kcat/KM is 33 M⁻¹ s⁻¹ in data set [20]; 170 M⁻¹ s⁻¹ in data set [21]; 27 M⁻¹ s⁻¹ in data set [22]; 62 M⁻¹ s⁻¹ in [23]; 610 M⁻¹ s⁻¹ in data set [24]; 73 M⁻¹ s⁻¹ in data set [25]. Further, the FXa kcat/KM in data set [26] came out at 7 M⁻¹ s⁻¹; in data set [27], 110 M⁻¹ s⁻¹; in data set [28], 15 M⁻¹ s⁻¹; in [29], 91 M⁻¹ s⁻¹; in data set [30], 330 M⁻¹ s⁻¹; in data set [31] it was 990 M⁻¹ s⁻¹. Moreover, the FXa kcat/KM in data set [32] came out at 2700 M⁻¹ s⁻¹; in [33] it was 1000 M⁻¹ s⁻¹; in [34], 420 M⁻¹ s⁻¹; in data set [35] it was 630 M⁻¹ s⁻¹; in data set [36], 200 M⁻¹ s⁻¹; in data set [37] it was 340 M⁻¹ s⁻¹. For the same protein, the FXa kcat/KM in [38] turned out to be 21 M⁻¹ s⁻¹; in data set [39], 13 M⁻¹ s⁻¹; in data set [40], 22 M⁻¹ s⁻¹; in data set [41] it was 430 M⁻¹ s⁻¹.
